Experimental data: US20210395344A1 (TWIST BIOSCIENCE, published 2021)
Where a chain is given by its changes, count along the chain named.

B1: 1-26 (antibody, V domains shown)
VH: EVQLLESGGGLVQPGGSLRLSCAASGFTFSSYAISWVRQAPGKGLEWVSAISGSGYSTYYADSVKGRFTISRDNSKNTLYLQMNSLRAEDTAVYYCARGAPDSSGYYFQGEVYFDYWGQGTLVTVSS
VL: QSALTQPASVSGSPGQSITISCTGTSSDVGGYNLVSWYQQHPGKAPKLMIYEGTKRPSGVSNRFSGSKSGNTASLTISGLQAEDEADYYCCSFVRSSAHVVFGGGTKLTVL
B2: 1-30 (antibody, V domains shown)
VH: EVQLLESGGGLVQPGGSLRLSCAASGFTFSSYAMTWVRQAPGKGLEWVSAISGSGGSTFYADSVKGRFTISRDNSKNTLYLQMNSLRAEDTAVYYCTRPPYGDYGDYWGQGTLVTVSS
VL: B1 VL with S27R, G31S, F93Y, V94A, R95G, S97R, A98T, H99P
B3: 1-28 (antibody, V domains shown)
VH: EVQLLESGGGLVQPGGSLRLSCAASGFTFSSYGMSWVRQAPGKGLEWVSAISGSGGGTYYADSVKGRFTISRDNSKNTLYLQMNSLRAEDTAVYYCASSSSWQFDYWGQGTLVTVSS
VL: B1 VL with D28G, G31S, T54S, K55Q, F93Y, V94A, R95G, A98T, V100Y
B4: 1-4 (antibody, V domains shown)
VH: EVQLLESGGGLVQPGGSLRLSCAASGFTFSSQAMSWVRQAPGKGLEWVSAISGSGGGTYYADSVKGRFTISRDNSKNTLYLQMNSLRAEDTAVYYCAKDRRFGEFDPWGQGTLVTVSS
VL: B1 VL with G31T, T54S, K55Q, F93Y, V94A, R95G, A98S, H99F
B5: 1-3 (antibody, V domains shown)
VH: B4 VH
VL: B1 VL with T25I, G31S, F93Y, V94A, R95G, A98S, H99F
B6: 1-24 (antibody, V domains shown)
VH: EVQLLESGGGLVQPGGSLRLSCAASGFTFSSYAMNWVRQAPGKGLEWVSIISGSGGSTYYADSVKGRFTISRDNSKNTLYLQMNSLRAEDTAVYYCAREGYRDYLWYFDLWGQGTLVTVSS
VL: QSALTQPASVSGSPGQSITISCTGTSSDVGYYNLVSWYQQHPGKAPKLMIYEGNKRPSGVSNRFSGSKSGNTASLTISGLQAEDEADYYCCSYAGGSVVFGGGTKLTVL
B7: 1-47 (antibody, V domains shown)
VH: B4 VH
VL: B1 VL with D28G, G31S, T54I, F93Y, V94A, R95G, A98S, H99F
notes: also called variant 1-47
B8: 1-10 (antibody, V domains shown)
VH: EVQLLESGGGLVQPGGSLRLSCAASGFTFSSYDMSWVRQAPGKGLEWVSVISGSGGSTYYADSVKGRFTISRDNSKNTLYLQMNSLRAEDTAVYYCAKGPLVGWYFDLWGQGTLVTVSS
VL: B1 VL with D28N, G31S, F93Y, V94A, R95G, A98S, H99F
notes: also called variant 1-10
B9: 1-7 (antibody, V domains shown)
VH: B8 VH
VL: B1 VL with V29F, G31S, T54N, F93Y, V94A, R95G, A98T, H99F
notes: also called variant 1-7
B10: 1-23 (antibody, V domains shown)
VH: B6 VH with M34I, N35S
VL: B6 VL with S27N, Y31S, G96S, S97Y, V98T
notes: also called variant 1-23
B11: 1-24 (antibody, V domains shown)
VH: B6 VH
VL: B6 VL
notes: also called variant 1-24
B12: 1-17 (antibody, V domains shown)
VH: EVQLLESGGGLVQPGGSLRLSCAASGFTFSSYAMYWVRQAPGKGLEWVSAISGSAGSTYYADSVKGRFTISRDNSKNTLYLQMNSLRAEDTAVYYCARDTNDFWSGYSIFDPWGQGTLVTVSS
VL: QSALTQPASVSGSPGQSITISCTGTSSDIGSYNLVSWYQQHPGKAPKLMIYEGTKRPSGVSNRFSGSKSGNTASLTISGLQAEDEADYYCCSYAGSRTYVFGGGTKLTVL
notes: also called variant 1-17
B13: 1-42 (antibody, V domains shown)
VH: EVQLLESGGGLVQPGGSLRLSCAASGVTFSSYAMSWVRQAPGKGLEWVSAITGSGGSTYYADSVKGRFTISRDNSKNTLYLQMNSLRAEDTAVYYCAKHGSGTIFGVVIAKYYFDYWGQGTLVTVSS
VL: B12 VL with I29V, S31R, T54G, G95S, R97S, Y99L
notes: also called variant 1-42

The binders below were run against T1, SARS-CoV-2 Spike Glycoprotein S1 (subunit 1) (SARS-CoV-2, UniProt P0DTC2 16-685) (assay: screening phage ELISA, mean).
T1 construct: also called S1 Monomer; SARS-CoV-2 S1

Row | Binder | ELISA (Avg)
1 | B1 | 19.5
2 | B2 | 29.5
3 | B3 | 17.7
4 | B4 | 20.6
5 | B5 | 23.9
6 | B6 | 32.9

The binders below were run against T1, SARS-CoV-2 Spike Glycoprotein S1 … (assay: column DC/S1 (format not explained)).

Row | Binder | Kd [nM]
7 | B2 | 4.7
8 | B3 | 520
9 | B4 | 659
10 | B5 | 253
11 | B6 | 2040

What follows are binders tested against T1, SARS-CoV-2 Spike Glycoprotein S1 … (assay: column Fc/S1 (format not explained)).

Row | Binder | Kd [nM]
12 | B3 | 3240
13 | B4 | 25.5

What follows are binders tested against T1, SARS-CoV-2 Spike Glycoprotein S1 … (assay: column Inhibitor IC50 (assay not explained)).

Row | Binder | IC50 [nM]
14 | B1 | 8
15 | B2 | 25.3
16 | B5 | 15.7

What follows are binders tested against T2, S1-Fc (SARS-CoV-2, UniProt P0DTC2 16-685) (assay: phage ELISA).

Row | Binder | ELISA fold over background [fold over background]
17 | B7 | 1.2
18 | B8 | 1.3
19 | B9 | 1.7
20 | B10 | 1.6
21 | B11 | 1.1
22 | B12 | 1.6
23 | B13 | 1.4

Each binder was assayed against T3, COVID S1 RBM Fc fusion (Antigen 2) (SARS-CoV-2, UniProt P0DTC2 437-508) (assay: phage ELISA).
T3 construct: domain: RBM

Row | Binder | ELISA fold over background [fold over background]
24 | B7 | 0.9
25 | B8 | 1.1
26 | B9 | 1.6
27 | B10 | 1.6
28 | B11 | 1.3
29 | B12 | 1.3
30 | B13 | 1

The binders below were run against T4, COVID S1 RBD Fc fusion (Antigen 1) (SARS-CoV-2, UniProt P0DTC2 319-541) (assay: phage ELISA).
T4 construct: domain: RBD

Row | Binder | ELISA fold over background [fold over background]
31 | B7 | 5.5
32 | B8 | 17.4
33 | B9 | 3.3
34 | B10 | 3.6
35 | B11 | 11
36 | B12 | 20.1
37 | B13 | 20.8

Each binder was assayed against T5, SARS-CoV-2 S1 (antigen of the Carterra SPR kinetics) (SARS-CoV-2, UniProt P0DTC2 16-685) (assay: Carterra SPR).

Row | Binder | koff [s⁻¹] | kon [M⁻¹ s⁻¹]
38 | B7 | 0.24 | 6320
39 | B8 | 0.147 | 1.04e+06
40 | B9 | 0.17 | 1.34e+06
41 | B10 | 0.159 | 506000
42 | B11 |  | 1.94e+08
43 | B12 |  | 3.92e+08
44 | B13 |  | 9.1e+08

Target: T2, S1-Fc
Experiment: phage ELISA
Remark: another data set of the same source

Row | Binder | ELISA fold over background [fold over background]
45 | B7 | 1.2
46 | B8 | 1.3
47 | B9 | 1.7
48 | B10 | 1.6
49 | B11 | 1.1
50 | B12 | 1.6
51 | B13 | 1.4

Target: T3, COVID S1 RBM Fc fusion (Antigen 2)
Experiment: phage ELISA
Remark: another data set of the same source

Row | Binder | ELISA fold over background [fold over background]
52 | B7 | 0.9
53 | B8 | 1.1
54 | B9 | 1.6
55 | B10 | 1.6
56 | B11 | 1.3
57 | B12 | 1.3
58 | B13 | 1

Target: T4, COVID S1 RBD Fc fusion (Antigen 1)
Experiment: phage ELISA
Remark: another data set of the same source

Row | Binder | ELISA fold over background [fold over background]
59 | B7 | 5.5
60 | B8 | 17.4
61 | B9 | 3.3
62 | B10 | 3.6
63 | B11 | 11
64 | B12 | 20.1
65 | B13 | 20.8

Target: T5, SARS-CoV-2 S1 (antigen of the Carterra …)
Experiment: Carterra SPR
Remark: another data set of the same source

Row | Binder | Kd [nM] | koff [s⁻¹] | kon [M⁻¹ s⁻¹]
66 | B7 | 38000 | 0.24 | 6320
67 | B8 | 142 | 0.147 | 1.04e+06
68 | B9 | 127 | 0.17 | 1.34e+06
69 | B10 | 315 | 0.159 | 506000
70 | B11 | 75.5 |  | 1.94e+08
71 | B12 | 67.1 |  | 3.92e+08
72 | B13 | 113 |  | 9.1e+08

These binders were tested against T1, SARS-CoV-2 Spike Glycoprotein S1 … (assay: ELISA binding titration).

Row | Binder | EC50 [nM]
73 | B1 | 48.5
74 | B3 | 2.28
75 | B4 | 2.56
76 | B5 | 0.133

Target: T1, SARS-CoV-2 Spike Glycoprotein S1 …
Experiment: screening phage ELISA, mean
Remark: another data set of the same source

Row | Binder | ELISA (Avg)
77 | B1 | 19.5
78 | B2 | 29.5
79 | B3 | 17.7
80 | B4 | 20.6
81 | B5 | 23.9
82 | B6 | 32.9
